Results as given in US20260234236A1 (INTERVET, published 2026).

T1: Canine IL-4 with C-terminal Avi-HIS tag (canine, biotin label when loaded on SA biosensors (Example 4); site not stated)
T1 construct: also called cIL-4; biotinylated avitag-cIL-4
T1 chain: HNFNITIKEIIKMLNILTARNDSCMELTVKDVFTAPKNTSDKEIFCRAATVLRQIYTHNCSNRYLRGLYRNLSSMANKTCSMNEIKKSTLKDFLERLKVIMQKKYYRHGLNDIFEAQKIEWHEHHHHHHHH

T2: Canine IL-13 with C-terminal Avi-HIS tag (canine, biotin label when loaded on SA biosensors (Example 4); site not stated)
T2 construct: also called cIL-13; biotinylated avitag-cIL13
T2 chain: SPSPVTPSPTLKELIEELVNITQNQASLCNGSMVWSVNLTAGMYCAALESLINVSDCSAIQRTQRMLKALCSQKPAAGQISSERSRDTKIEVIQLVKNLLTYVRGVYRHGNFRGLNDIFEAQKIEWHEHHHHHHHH


Legend:
[1] = target: T1, Canine IL-4 with C-terminal Avi-HIS tag; assay: BLI (OCTET HTX); biotin-cIL-4 on SA biosensors, scFv in solution; 1:1 model
Description: (§1) The in vitro binding of anti-canine IL-4 scFv and IL-13 scFv to canine IL-4 and canine IL-13, respectively, was determined by OCTET HTX using SA biosensors and Data Acquisition 12.0 software. First, biotin-labeled antigen (cIL-4 or cIL-13) was loaded onto the pre-rehydrated SA biosensors for 60 seconds (60s) at a concentration of 5 μg/mL. Second, the biosensors were placed into the OCTET Kinetics Buffer (PBS+0.02% Tween20, 0.1% BSA) for the blocking phase for 120s. Third, for the association phase, cIL-4 or cIL-13 antigen loaded biosensors were placed into 2-fold serial dilutions from 500 nM down to 7.8 nM of anti-cIL-4 or anti-cIL-13 scFvs, respectively, in OCTET Kinetics Buffer for 60s. The last well was buffer alone and that sensor was used for reference sensor subtraction. Finally, the biosensors were placed into OCTET Kinetics Buffer for the dissociation phase for 300s. The analysis was performed using Data Analysis 12.0 software and curves were fitted using a 1:1 binding model.

[2] = target: T2, Canine IL-13 with C-terminal Avi-HIS tag; assay: BLI (OCTET HTX); biotin-cIL-13 on SA biosensors, scFv in solution; 1:1 model
Description: as §1

Binder	Kd [1] [nM]	koff [1] [s⁻¹]	kon [1] [M⁻¹ s⁻¹]	Kd [2] [nM]	koff [2] [s⁻¹]	kon [2] [M⁻¹ s⁻¹]
IL4 P4A-1 E10 scFv (scFv, scFv purified from E. coli periplasm on Ni-NTA) scFv: QSVLNQPPSVSAALGQRVTVSCTGTDTNIGSGYDVQWYQQVPGKSPTPIIYGNTNRPSGVPERFSGSKSGNTATLTITGIQAEDEADYYCQSFDDNVDGYVFGSGTQLTILGGGSSRSSSSGGGGSGGGGEVPLVESGGDLVKPGGSLRLSCVASGFTFSDYHMSWVRQAPGKGLQWVADISSSGSTYYADAVKGRFTISRDNAKNTLYLQMNSLRAEDTAVYYCARQWGEFDYWGQGTLVTVSSESPSPPNLTSGQAGQ	10.3	0.00173	194000	–	–	–
IL4 P3-1 A6 scFv (scFv, scFv purified from E. coli periplasm on Ni-NTA) scFv: QPVLTQPPSVSAALGQRVTISCNTNIGSPYDVQWYQQLPGKSPKTIIYGNSNRPSGVPVRFSGSKSGSTATLTIAGIQAEDEADYYCQSYDDNVDGYVFGSGTQLTVLGGGSSRSSSSGGGGSGGGGEVPLVESGGDLVKPGGSLRLSCVASGFTFHNYDLSWIRQLPGGGLQWVADIDKSGLTFYADAVKGRFTISRDNAKNTLYLQMNSLRAEDTAVYYCATWPLGSWYTETFEYWGQGTLVTVSSASTTAPSVTSGQAGQ	1.24	0.000272	219000	–	–	–
IL13 P2-1 H5 scFv (scFv, scFv purified from E. coli periplasm on Ni-NTA) scFv: QSVLNQPPSVSAALGQRVTISCTGTNTNIGSGYSVQWYQQLPGESPKPIIYGSSNRPSGVPARFSGSKSGSTGTLTITGIQAEDEADYHCQSYDDSLDGHAVFGGGTQLTVLGGGSSRSSSSGGGGSGGGGEVQLVQSGGDLVKPGGSLRLSCVASGFTFSGYDMSWVRQSPGKGLQWVATVWSDGNTIYYADAVKGRFTISRDNAKNTVYLQMNSLRAEDTAMYYCAKSPYCTDDYCPWGDYLDLWGQGTLVTVSSASTTAPSVTSGQAGQ	–	–	–	9.09	0.00291	321000
IL4 P4-1 A10 scFv (scFv, scFv purified from E. coli periplasm on Ni-NTA) scFv: QSVLNQLPSVSGSLGQKVTIRCSGNTDNIGMVGAAWYRQVPGEAPKLLLYSDGNRPSGVPDRFSGSDSGRSATLTITGLQPEDEADYYCQSLDPTVPGNYLFGSGTQLTILGGGSSRSSSSGGGGSGGGGEVQLVESGGDLVKPGGSLRLSCVASGFTFSDYDMTWVRQAPGKGLQWVADINNGGSSTTYADAVKGRFTISRDNAKNTLYLQMNSLRAEDTAMYYCAKEGDNTWLSFDSWGQGTLVTVSSESPSPPNLTSGQAGQ	9.92	0.011	954000	–	–	–
IL4 P4A-2 G11 scFv (scFv, scFv purified from E. coli periplasm on Ni-NTA) scFv: DIVMTQTPLSLSVSPGEPASISCKASQSLLYSDGNTYLYWFRQKPGQSPQRLISLVSNRDAGVPDRFSGSGSGTDFTLRISRVEADDAGVYYCGQGIQDPITFGKGTHLEIKGGSSRSSSSGGGGSGGGGEVPLVESGGDLVKPGGSLRLSCVASGFPFRSYGMNWVRQSPGGGLQWVAGILFDGSATAYADAVRGRFTISRDNAKNTLYLQMNSLRAEDTAVYYCASDDGSYIEAYNWFYYWGQGTLVTVSSASTTAPSVTSGQAGQ	8.5	0.00117	137000	–	–	–
IL4 P4A-1 A4 scFv (scFv, scFv purified from E. coli periplasm on Ni-NTA) scFv: SYVLSQPPSVSVTPSETAHITCGGNNIGSKYVQWIRQSAGQAPVTIIYGNTNRPTGIPERFSGANSGNTATLTISGVLAEDEADYYCQVGDTDTTVFGGGTHLTVLGGGSSRSSSSGGGGSGGGGEVQLVESGGDLVKPGGSLRLSCVASGFNFSRYSMSWVRQAPEKGLQLVAAVNSGGSRTWYADAVQGRFTVSRDNAKNTLFLEMSSLKLEDTAMYYCAKDLWSTTIAEYDYWGQGTLVTVSSASTTAPSVTSGQAGQ	52	0.0373	704000	–	–	–
IL4 P3-1 B10 scFv (scFv, scFv purified from E. coli periplasm on Ni-NTA) scFv: QSVLTQPTSVSAALGQRVTISCTGSNANIGSVYDVQWYQQLPGKSPKTIIYGNTHRPSGVPVRFSGSKSGSTATLTITGIQAEDEADYYCQSYDATLHYVFGSGTQLTVLGGGSSRSSSSGGGGSGGGGEVQLVESGGDLVKPGGSLRLSCVASGFTFSNYDMSWVRQAPGKGLQWVSTISYDGNNTYYSDAVKGRFTISRDNARNTLYLQMNSLRAEDTAVYYCAKEFDIPWDNFDYWGQGTLVTVSSASTTAPSVTSGQAGQ	4.57	0.00522	1.14e+06	–	–	–
IL4 P3-1 D7 scFv (scFv, scFv purified from E. coli periplasm on Ni-NTA) scFv: QSMLTQPASVSGSLGQRVAISCSGSTNNIGIFGATWYQHLPGKAPKFLLYSDGNRPSGVPDRFSGSDSGNSVTLMITALQAEDEADYYCQSFDTTLGAYVFGSGTQLTILGGGSSRSSSSGGGGSGGGGEVQLVQSGGDLVKPGGSLRLSCVASGFAFNGYDMDWVRLAPGKGLQWLSEISSSGSPTYYADAVEGRFTISRDNAKNTLYLQMDSLRAEDTAVYYCARAGEYTYGYEGYYFDYWGQGTLVTVSSASTTAPSVTSGQAGQ	17.5	0.00729	391000	–	–	–
IL4 P4-1 G3 scFv (scFv, scFv purified from E. coli periplasm on Ni-NTA) scFv: QSVLNQLPSLSMNMGETATFTCEGDNIGHKYVNWYQQKPGQAPVLTIYEDNKRPSGIPERFSGSNSGNTATLTISGARAEDEADYYCESEVSTGIVFGGGTHLTVLGGGSSRSSSSGGGGSGGGGEVQLVESGGDLVKPGGSLRLSCVASGFTFSSYDMDWVRQAPGKGLEWLSEISTNGDRTHYADAVKGRFAISRDNAKNTVYLQMNSLRAEDTAIYYCVRDGYEYLAFDYWGQGTLVTVSSASTTAPSVTSGQAGQ	3.94	0.00247	594000	–	–	–
IL4 P3-1 C4 5LC scFv (scFv) scFv: QAVLNQPASVSGSLGQRVTISCSGSTNNIGVVGASWYQQFPGKAPKLLVYSDGDRPSGVPDRFSGSNSGYSDTLTITGLQAEDEADYYCQSFDTTLNAYVFGSGTQLTVLGGGSSRSSSSGGGGSGGGGEVPLVESGGDLVKPGGSLRISCVASGITFNNDDMGWVRQAPGKGLQWLAEISSSGTSTYYADAVKGRFTISRDNAKNTVYLQMNSLKAEDTGVYYCVGEDGYMALGFWGQGTLVTVSSASTTAPSVTSGQAGQ	4.13	0.000547	132000	–	–	–
IL13 P4A-2 E11 scFv (scFv, scFv purified from E. coli periplasm on Ni-NTA) scFv: QSALTQTASVSGSLGQRVTISCTGATRNVGTVGVTWYQQVPGKAPKLLLFSNGDRPSWVPDRFSGSTSGYSATLIINGVQAEDEAMYHCQSFDTMPDAHYMFGSGTQLTVLGGGSSRSSSSGGGGSGGGGELTLQESGPGLVKPSQTLSLTCVVSGASVTSTNYWNWIRQRPGRGLEWMGYWTGSTKYNPAFQGRISITADTAKNQFSLQLSSMTTEDTAVYYCARSSTWINGFDYWGQGTLVTVSSESPSPPNLTSGQAGQ	–	–	–	26.8	0.00466	174000
IL4 P3-1 B9 scFv (scFv, scFv purified from E. coli periplasm on Ni-NTA) scFv: QAVLTQPASVSAALGQRVTISCTGTATNVGGGYDVQWYQQFPGRPPKTIIYGNYNRPSGVPDRFSASTSGTTATLTITGIQVADEADYYCQSFDTTFNGHVFGAGTQLTILGGGSSRSSSSGGGGSGGGGELQLVELGGDLVKPGGSLRLSCVASGFTFSSYGMSWVRQSPGKGLQWVADISSSGSTYYADAVKGRFTISRDNAKSTLYLQMNSLRAEDTAVYYCAKAGYGSYYDFGMDYWGHGTSVFVSSESPSPPNLTSGQAGQ	4.5	0.00108	241000	–	–	–
IL4 P4A-1 F10 scFv (scFv, scFv purified from E. coli periplasm on Ni-NTA) scFv: QTVVTQEPSLSVSPGGTVTLTCGLSSGSVSTGNYPGWYQQTQGRAPRSIIYDTNSRPSGVPDRFSGSISGNKAVLTITGAQPEDEADYYCSLYTGIAYTDVVFGGGTHLTVLGGGSSRSSSSGGGGSGGGGEVQLVQSGGDLVKPAGSLRLSCVASGFTFNSYAMSWVRQAPGKGLQWVAGINSGGSTTTYADAVKGRFTISRDNAKNTLYLQMNSLRAEDTAVYYCAKDQNSYYPSDTFEYWGQGTLVTVSSESPSPPNLTSGQAGQ	12.7	0.00396	311000	–	–	–
IL13 P3-05 scFv (scFv, scFv purified from E. coli periplasm on Ni-NTA) scFv: SYVLTQPPSVTVPLRQTARISCGGDNIRSKNVHWYQQKPGQAPVLIIYNDSNRPTGIPERFSGSNSGNMATLTIRGALAEDEADYYCQVWANDGYVFGSGTQLTVLGGGSSRSSSSGGGGSGGGGEVQLVESGGDSVRPGGSLRLSCVASGFTFSRYNMGWVRQAPGKGLQWVAWIYDGGSRTSYADAVKGRFTISRDNAKDTLYLQMDDLRVDDTAVYYCARDPSSWGSLFDYWGQGTLVTVSSASTTAPSVTSGQAGQ	–	–	–	59.7	0.00487	176000
IL4 P4A-2 D11 scFv (scFv, scFv purified from E. coli periplasm on Ni-NTA) scFv: QAVLTQPPSVSAALGQRVTISCSGSTDNVGTVGASWYQHLPGRAPKLLVYIVGDRPSGVPDRFSGSKSGTSATLTITGLQAEDEADYYCSSWDDSLRGIVFGGGTHLTVLGGGSSRSSSSGGGGSGGGGEEQLVEFGGDLVKPGESLRLSCVASGFTFNKYDMSWVRQAPGKGLQWVATVADDESFAYYTDSVKGRFTISRDNAKNTLYLQMNSLRAEDTAMYYCVGKTGSYWDIDFDLWGPGTLVTISSASTTAPSVTSGQAGQ	4.38	0.00775	1.52e+06	–	–	–
